Target: the molecule itself
Assay: SEC; analytical size-exclusion chromatography of refolded irisin; apparent molecular weight 28 kDa

B1: human irisin (FNDC5 residues 32-143) (natural protein, UniProt Q8NAU1 80-191, looked up)
chain: DSPSAPVNVTVRHLKANSAVVSWDVLEDEVVIGFAISQQKKDVRMLRFIQEVNTTTRSCALWDLEEDTEYIVHVQAISIQGQSPASEPVLFKTPREAEKMASKNKDEVTMKE
notes: irisin, human FNDC5 residues 32-143
stoichiometry N: 2

Source: paper PMC4726114, “DSF Guided Refolding As A Novel Method Of Protein Production” (Scientific Reports, 2016)
